{
  "source": "patent EP4285935A1",
  "about": "(Emergence Therapeutics AG, dated 2023)",
  "key": {"human Nectin-4 on cells": {"target": "T1, human Nectin-4 on cells (human, UniProt Q96NY8 32-510)", "T1 construct": "whole, on cells; also called CHO cells transfected with human Nectin-4 cDNA; Nectin-4 expressed by normal differentiated human keratinocytes (NHEK)", "T1 sequence (looked up)": "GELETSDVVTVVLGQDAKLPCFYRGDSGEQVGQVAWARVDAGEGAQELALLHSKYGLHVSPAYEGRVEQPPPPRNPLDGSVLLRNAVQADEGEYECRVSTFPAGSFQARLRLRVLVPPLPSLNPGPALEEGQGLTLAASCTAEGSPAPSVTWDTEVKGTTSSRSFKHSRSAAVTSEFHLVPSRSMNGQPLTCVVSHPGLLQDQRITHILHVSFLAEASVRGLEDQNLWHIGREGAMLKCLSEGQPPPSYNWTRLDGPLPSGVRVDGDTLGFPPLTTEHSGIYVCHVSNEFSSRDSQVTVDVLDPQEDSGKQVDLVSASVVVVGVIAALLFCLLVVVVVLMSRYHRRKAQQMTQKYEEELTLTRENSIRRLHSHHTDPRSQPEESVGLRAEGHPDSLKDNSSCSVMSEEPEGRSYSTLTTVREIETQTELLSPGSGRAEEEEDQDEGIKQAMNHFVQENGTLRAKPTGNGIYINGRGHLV", "assay": "flow cytometry on normal differentiated human keratinocytes (NHEK), dose range 8 pM - 33 nM (FIG. 15); Ch-5A12.2 is the reference of the comparison"}, "[1]": {"target": "T2, N-terminal Flag-tagged human Nectin-4 on transfected MDA-MB231 cells (human, UniProt Q96NY8 32-510)", "T2 construct": "whole, on cells; also called PVRL4; Flag-tagged Nectin-4; not shown: N-terminal Flag tag from vector p3XFLR4.C1", "T2 sequence (looked up)": "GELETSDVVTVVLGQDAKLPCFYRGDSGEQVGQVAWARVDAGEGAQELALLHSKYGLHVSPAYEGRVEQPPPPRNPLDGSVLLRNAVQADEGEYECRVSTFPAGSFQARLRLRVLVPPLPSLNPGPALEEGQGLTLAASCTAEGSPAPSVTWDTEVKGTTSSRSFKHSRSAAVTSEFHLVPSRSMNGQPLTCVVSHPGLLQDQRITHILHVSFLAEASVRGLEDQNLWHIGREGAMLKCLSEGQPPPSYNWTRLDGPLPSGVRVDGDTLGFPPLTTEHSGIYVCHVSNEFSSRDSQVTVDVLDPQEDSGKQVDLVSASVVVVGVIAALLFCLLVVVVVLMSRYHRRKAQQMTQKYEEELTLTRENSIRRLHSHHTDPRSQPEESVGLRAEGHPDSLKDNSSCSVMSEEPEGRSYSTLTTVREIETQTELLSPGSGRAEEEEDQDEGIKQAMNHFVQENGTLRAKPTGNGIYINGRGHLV", "assay": "flow cytometry on MDA-MB231 cells transfected with N-terminal Flag-tagged Nectin-4, dose range 0.3 ng/mL - 5 µg/mL (FIG. 1)"}},
  "data": [
    {"binder": "Ch-5A12.2 (antibody, V domains shown, also called 5A12.2 mAb; Ch-5A12.2 mAb) VH: QIQLQQSGAELVKPGASVTLSCKTSGFTFNSMYISWLKQKPGQSLEWIAWIYAGTGGTRFNQKFTGKVQLTVDTSSSTAYMQFSSLTTDDSAIYYCAIRSGFVPMDYWGQGTSVTVSS VL: SIVMTQTPKFLLVSAGDRVTITCKASQSVSNDVAWYQQKPGQSPKLLIYYASNRYTGVPDRFTGSGYGTDFTFTISTVQAEDLAVYFCQQDYSSPWTFGGGTKLEIK", "values": [
      {"measurement": "binding result", "setting": "human Nectin-4 on cells", "result": "binds"},
      {"measurement": "binding result", "setting": "[1]", "result": "binds"}
    ]}
  ]
}
